Source: the supplement of paper PMC11246515
± gives the standard deviation of the averaged measurements.

Experiment: total protein half-life in vivo (active degradation + dilution); higher = more stable protein
[1] = E. coli NCM3722 delta-clpP delta-lon delta-hslV, growth: N-lim chemostat, doubling time 6 h
[2] = E. coli NCM3722 delta-clpP, growth: N-lim chemostat, doubling time 6 h
[3] = E. coli NCM3722 delta-hslV, growth: N-lim chemostat, doubling time 6 h
[4] = E. coli NCM3722 delta-smpB, growth: N-lim chemostat, doubling time 6 h
[5] = wild type E. coli NCM3722, growth: C-lim chemostat, doubling time 3 h
[6] = wild type E. coli NCM3722, growth: C-lim chemostat, doubling time 6 h
[7] = wild type E. coli NCM3722, growth: C-lim chemostat, doubling time 12 h
[8] = wild type E. coli NCM3722, growth: N-lim chemostat, doubling time 6 h
[9] = wild type E. coli NCM3722, growth: N-lim chemostat, doubling time 12 h
[10] = wild type E. coli NCM3722, growth: P-lim chemostat, doubling time 6 h
[11] = wild type E. coli NCM3722, growth: P-lim chemostat, doubling time 12 h
[12] = E. coli NCM3722 delta-lon, growth: N-lim chemostat, doubling time 6 h

Sequence | total protein half-life in vivo [1] | total protein half-life in vivo [2] | total protein half-life in vivo [3] | total protein half-life in vivo [4] | total protein half-life in vivo [5] | total protein half-life in vivo [6] | total protein half-life in vivo [7] | total protein half-life in vivo [8] | total protein half-life in vivo [9] | total protein half-life in vivo [10] | total protein half-life in vivo [11] | total protein half-life in vivo [12]
MNKILLVDDDRELTSLLKELLEMEGFNVIVAHDGEQALDLLDDSIDLLLLDVMMPKKNGIDTLKALRQTHQTPVIMLTARGSELDRVLGLELGADDYLPKPFNDRELVARIRAILRRSHWSEQQQNNDNGSPTLEVDALVLNPGRQEASFDGQTLELTGTEFTLLYLLAQHLGQVVSREHLSQEVLGKRLTPFDRAIDMHISNLRRKLPDRKDGHPWFKTLRGRGYLMVSAS [P0AE88] | 5.73 ± 0.89 h | 4.96 ± 0.36 h | 4.848 ± 0.016 h | 5.11 ± 0.091 h | 3.28 ± 0.5 h | 5.44 ± 0.21 h | 11.4 ± 0.69 h | 6 ± 1.4 h | 8.76 ± 0.57 h | 6.01 ± 0.11 h | 10.9 ± 0.17 h | –
MNKKIHSLALLVNLGIYGVAQAQEPTDTPVSHDDTIVVTAAEQNLQAPGVSTITADEIRKNPVARDVSKIIRTMPGVNLTGNSTSGQRGNNRQIDIRGMGPENTLILIDGKPVSSRNSVRQGWRGERDTRGDTSWVPPEMIERIEVLRGPAAARYGNGAAGGVVNIITKKGSGEWHGSWDAYFNAPEHKEEGATKRTNFSLTGPLGDEFSFRLYGNLDKTQADAWDINQGHQSARAGTYATTLPAGREGVINKDINGVVRWDFAPLQSLELEAGYSRQGNLYAGDTQNTNSDSYTRSKYGDETNRLYRQNYALTWNGGWDNGVTTSNWVQYEHTRNSRIPEGLAGGTEGKFNEKATQDFVDIDLDDVMLHSEVNLPIDFLVNQTLTLGTEWNQQRMKDLSSNTQALTGTNTGGAIDGVSTTDRSPYSKAEIFSLFAENNMELTDSTIVTPGLRFDHHSIVGNNWSPALNISQGLGDDFTLKMGIARAYKAPSLYQTNPNYILYSKGQGCYASAGGCYLQGNDDLKAETSINKEIGLEFKRDGWLAGVTWFRNDYRNKIEAGYVAVGQNAVGTDLYQWDNVPKAVVEGLEGSLNVPVSETVMWTNNITYMLKSENKTTGDRLSIIPEYTLNSTLSWQAREDLSMQTTFTWYGKQQPKKYNYKGQPAVGPETKEISPYSIVGLSATWDVTKNVSLTGGVDNLFDKRLWRAGNAQTTGDLAGANYIAGAGAYTYNEPGRTWYMSVNTHF | – | 5.83 h | – | – | 3.068 ± 0.0056 h | 7.39 ± 0.36 h | 14.5 ± 2.1 h | 6.97 h | – | 6.6 h | 12.3 h | –
MNKRDAINHIRQFGGRLDRFRKSVGGSGDGGRNAPKRAKSSPKPVNRKTNVFNEQVRYAFHGALQDLKSKPFATFLTVMVIAISLTLPSVCYMVYKNVNQAATQYYPSPQITVYLQKTLDDDAAAGVVAQLQAEQGVEKVNYLSREDALGEFRNWSGFGGALDMLEENPLPAVAVVIPKLDFQGTESLNTLRDRITQINGIDEVRMDDSWFARLAALTGLVGRVSAMIGVLMVAAVFLVIGNSVRLSIFARRDSINVQKLIGATDGFILRPFLYGGALLGFSGALLSLILSEILVLRLSSAVAEVAQVFGTKFDINGLSFDECLLLLLVCSMIGWVAAWLATVQHLRHFTPE [P0AC30] | 6.31 ± 0.59 h | 6.43 ± 0.28 h | 6.04 ± 0.071 h | 6.02 ± 0.32 h | 3.17 ± 0.15 h | 5.86 ± 0.36 h | 12.5 ± 2.4 h | 6.42 ± 0.099 h | 12.3 ± 1.8 h | 5.99 ± 0.82 h | 13.5 ± 1.3 h | 6.55 ± 0.64 h
MNKSGKYLVWTVLSVMGAFALGYIALNRGEQINALWIVVASVCIYLIAYRFYGLYIAKNVLAVDPTRMTPAVRHNDGLDYVPTDKKVLFGHHFAAIAGAGPLVGPVLAAQMGYLPGMIWLLAGVVLAGAVQDFMVLFVSTRRDGRSLGELVKEEMGPTAGVIALVACFMIMVIILAVLAMIVVKALTHSPWGTYTVAFTIPLALFMGIYLRYLRPGRIGEVSVIGLVFLIFAIISGGWVAESPTWAPYFDFTGVQLTWMLVGYGFVAAVLPVWLLLAPRDYLSTFLKIGTIVGLAVGILIMRPTLTMPALTKFVDGTGPVWTGNLFPFLFITIACGAVSGFHALISSGTTPKMLANEGQACFIGYGGMLMESFVAIMALVSACIIDPGVYFAMNSPMAVLAPAGTADVVASAAQVVSSWGFSITPDTLNQIASEVGEQSIISRAGGAPTLAVGMAYILHGALGGMMDVAFWYHFAILFEALFILTAVDAGTRAARFMLQDLLGVVSPGLKRTDSLPANLLATALCVLAWGYFLHQGVVDPLGGINTLWPLFGIANQMLAGMALMLCAVVLFKMKRQRYAWVALVPTAWLLICTLTAGWQKAFSPDAKVGFLAIANKFQAMIDSGNIPSQYTESQLAQLVFNNRLDAGLTIFFMVVVVVLALFSIKTALAALKDPKPTAKETPYEPMPENVEEIVAQAKGAH | 5.72 h | 4.33 h | 4.49 ± 0.2 h | 4.96 ± 1.1 h | 3.36 ± 0.37 h | 5.34 ± 0.24 h | 11.7 ± 0.39 h | 5.33 ± 0.76 h | – | 5.517 ± 0.042 h | 10.3 ± 0.19 h | –
MNKSLVAVGVIVALGVVWTGGAWYTGKKIETHLEDMVAQANAQLKLTAPESNLEVSYQNYHRGVFSSQLQLLVKPIAGKENPWIKSGQSVIFNESVDHGPFPLAQLKKLNLIPSMASIQTTLVNNEVSKPLFDMAKGETPFEINSRIGYSGDSSSDISLKPLNYEQKDEKVAFSGGEFQLNADRDGKAISLSGEAQSGRIDAVNEYNQKVQLTFNNLKTDGSSTLASFGERVGNQKLSLEKMTISVEGKELALLEGMEISGKSDLVNDGKTINSQLDYSLNSLKVQNQDLGSGKLTLKVGQIDGEAWHQFSQQYNAQTQALLAQPEIANNPELYQEKVTEAFFSALPLMLKGDPVITIAPLSWKNSQGESALNLSLFLKDPATTKEAPQTLAQEVDRSVKSLDAKLTIPVDMATEFMTQVAKLEGYQEDQAKKLAKQQVEGASAMGQMFRLTTLQDNTITTSLQYANGQITLNGQKMSLEDFVGMFAMPALNVPAVPAIPQQ | 6.64 ± 0.32 h | 6.77 ± 0.68 h | 6.24 ± 0.28 h | 6 ± 0.23 h | 3.14 ± 0.049 h | 5.99 ± 0.08 h | 11.8 ± 1.2 h | 6.21 ± 0.15 h | 13.15 ± 0.042 h | 5.98 ± 0.13 h | 12.9 ± 0.87 h | 6.136 ± 0.016 h
MNKSMLAGIGIGVAAALGVAAVASLNVFERGPQYAQVVSATPIKETVKTPRQECRNVTVTHRRPVQDENRITGSVLGAVAGGVIGHQFGGGRGKDVATVVGALGGGYAGNQIQGSLQESDTYTTTQQRCKTVYDKSEKMLGYDVTYKIGDQQGKIRMDRDPGTQIPLDSNGQLILNNKV [P0AB35] | 0.776 ± 0.14 h | 0.716 h | – | 0.623 h | 0.834 h | – | – | 0.945 h | – | 0.416 h | 1.21 h | –
MNKTEFYADLNRDFNALMAGETSFLATLANTSALLYERLTDINWAGFYLLEDDTLVLGPFQGKIACVRIPVGRGVCGTAVARNQVQRIEDVHVFDGHIACDAASNSEIVLPLVVKNQIIGVLDIDSTVFGRFTDEDEQGLRQLVAQLEKVLATTDYKKFFASVAG | 4.82 ± 0.66 h | 4.43 ± 0.32 h | 4 ± 0.26 h | 4.22 ± 0.21 h | 3.22 ± 0.55 h | 5.38 ± 0.12 h | 11.8 ± 3.1 h | 4.33 ± 0.57 h | 7.72 ± 0.91 h | 5.8 ± 0.83 h | 9.9 ± 0.11 h | 4.523 ± 0.034 h
MNKTTEYIDAMPIAASEKAALPKTDIRAVHQALDAEHRTWAREDDSPQGSVKARLEQAWPDSLADGQLIKDDEGRDQLKAMPEAKRSSMFPDPWRTNPVGRFWDRLRGRDVTPRYLARLTKEEQESEQKWRTVGTIRRYILLILTLAQTVVATWYMKTILPYQGWALINPMDMVGQDLWVSFMQLLPYMLQTGILILFAVLFCWVSAGFWTALMGFLQLLIGRDKYSISASTVGDEPLNPEHRTALIMPICNEDVNRVFAGLRATWESVKATGNAKHFDVYILSDSYNPDICVAEQKAWMELIAEVGGEGQIFYRRRRRRVKRKSGNIDDFCRRWGSQYSYMVVLDADSVMTGDCLCGLVRLMEANPNAGIIQSSPKASGMDTLYARCQQFATRVYGPLFTAGLHFWQLGESHYWGHNAIIRVKPFIEHCALAPLPGEGSFAGSILSHDFVEAALMRRAGWGVWIAYDLPGSYEELPPNLLDELKRDRRWCHGNLMNFRLFLVKGMHPVHRAVFLTGVMSYLSAPLWFMFLALSTALQVVHALTEPQYFLQPRQLFPVWPQWRPELAIALFASTMVLLFLPKLLSILLIWCKGTKEYGGFWRVTLSLLLEVLFSVLLAPVRMLFHTVFVVSAFLGWEVVWNSPQRDDDSTSWGEAFKRHGSQLLLGLVWAVGMAWLDLRFLFWLAPIVFSLILSPFVSVISSRATVGLRTKRWKLFLIPEEYSPPQVLVDTDRFLEMNRQRSLDDGFMHAVFNPSFNALATAMATARHRASKVLEIARDRHVEQALNETPEKLNRDRRLVLLSDPVTMARLHFRVWNSPERYSSWVSYYEGIKLNPLALRKPDAASQ | 6.7 ± 0.34 h | 6.54 ± 0.33 h | 6.46 ± 0.79 h | 5.99 ± 0.24 h | 3.26 ± 0.39 h | 6.45 ± 0.66 h | – | 6.22 ± 0.42 h | 13.4 ± 0.32 h | 6.3 ± 0.32 h | 13.3 ± 1.8 h | 6.41 ± 0.39 h
MNKVAQYYRELVASLSERLRNGERDIDALVEQARERVIKTGELTRTEVDELTRAVRRDLEEFAMSYEESLKEESDSVFMRVIKESLWQELADITDKTQLEWREVFQDLNHHGVYHSGEVVGLGNLVCEKCHFHLPIYTPEVLTLCPKCGHDQFQRRPFEP [P0AAT9] | 5.96 ± 0.99 h | 4.62 ± 0.043 h | 4.74 ± 0.38 h | 4.05 ± 0.48 h | 2.81 ± 0.34 h | 4.632 ± 0.011 h | 8.29 ± 0.47 h | 3.87 ± 0.6 h | 10.7 ± 3.1 h | 5.95 ± 1.4 h | 10.9 ± 0.48 h | 5.364 ± 0.034 h
MNKYWLSGIIFLAYGLASPAFSSETATLAINGRISPPTCSMAMVNGQPQQHCGQLTYNVDTRHLFSSPVKGVTTEVVVAGSDSKRRIVLNRYD | 1.53 h | – | – | 0.626 ± 0.25 h | – | 0.465 h | – | – | – | – | – | –
